The values below come from patent US20060239968A1 (University of Texas, published 2006).

Positions of bridges follow the written chain, without caps; N, C: chain ends. Non-standard residues stand in square brackets, D forms with d. No end group written: not given here.

Assay [1] concerns the target vascular endothelial growth factor receptor-1 (VEGFR1), recombinant (UniProt P17948 27-756, limits assumed). Put plainly: in vitro ligand-receptor binding assay, phage on recombinant receptor. On the procedure: (§1) Recombinant IL-11Rα, vascular endothelial growth factor receptor-1 (VEGFR1) or leptin receptor (OB-R) were incubated with phage displaying the […] (SEQ ID NO:37) peptide. VEGFR1 was used as a representative vascular receptor, while OB-R was used because it shares a co-receptor with IL-11Rα. An unrelated phage clone displaying the peptide […] (SEQ ID NO:38) and insertless fd-tet phage were used as controls. […] Binding of […] (SEQ ID NO:37)-phage to IL-11Rα was specific, since it was inhibited by the native IL-11 ligand in a concentration-dependent manner (not shown). […] These observations with normal prostate tissues were followed by an examination of the expression of IL-11Rα in tumors, as discussed in the present Example.

Assay [2] addresses T1, leptin receptor (OB-R), recombinant (UniProt P48357 22-839, limits assumed).
T1 sequence (looked up): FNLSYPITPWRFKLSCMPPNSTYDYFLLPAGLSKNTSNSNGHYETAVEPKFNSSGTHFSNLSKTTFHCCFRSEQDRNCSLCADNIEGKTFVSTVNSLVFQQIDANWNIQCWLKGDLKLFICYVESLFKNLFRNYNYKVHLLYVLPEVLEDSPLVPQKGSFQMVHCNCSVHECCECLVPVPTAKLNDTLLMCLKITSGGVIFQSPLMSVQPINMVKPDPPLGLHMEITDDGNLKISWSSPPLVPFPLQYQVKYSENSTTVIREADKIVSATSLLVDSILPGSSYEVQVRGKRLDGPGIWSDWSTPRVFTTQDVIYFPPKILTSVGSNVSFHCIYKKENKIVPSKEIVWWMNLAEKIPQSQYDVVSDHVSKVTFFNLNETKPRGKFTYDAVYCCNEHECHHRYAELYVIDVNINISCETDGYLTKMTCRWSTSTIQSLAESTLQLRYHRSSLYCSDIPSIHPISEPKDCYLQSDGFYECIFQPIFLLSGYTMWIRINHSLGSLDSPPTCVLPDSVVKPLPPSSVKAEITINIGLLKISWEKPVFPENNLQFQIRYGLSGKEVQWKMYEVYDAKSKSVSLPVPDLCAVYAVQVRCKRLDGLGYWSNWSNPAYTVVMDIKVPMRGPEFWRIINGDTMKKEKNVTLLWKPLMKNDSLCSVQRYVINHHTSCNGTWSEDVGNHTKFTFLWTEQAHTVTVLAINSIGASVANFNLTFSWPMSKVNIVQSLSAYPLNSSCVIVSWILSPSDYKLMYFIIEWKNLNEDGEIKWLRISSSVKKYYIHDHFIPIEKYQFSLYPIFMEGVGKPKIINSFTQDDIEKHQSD
The assay is described as above. On the procedure: as §1

The target in assay [3] is T2, Recombinant IL-11Rα (IL-11 receptor alpha) (UniProt Q14626 23-370, limits assumed).
T2 construct: also called immobilized IL-11Rα
T2 sequence (looked up): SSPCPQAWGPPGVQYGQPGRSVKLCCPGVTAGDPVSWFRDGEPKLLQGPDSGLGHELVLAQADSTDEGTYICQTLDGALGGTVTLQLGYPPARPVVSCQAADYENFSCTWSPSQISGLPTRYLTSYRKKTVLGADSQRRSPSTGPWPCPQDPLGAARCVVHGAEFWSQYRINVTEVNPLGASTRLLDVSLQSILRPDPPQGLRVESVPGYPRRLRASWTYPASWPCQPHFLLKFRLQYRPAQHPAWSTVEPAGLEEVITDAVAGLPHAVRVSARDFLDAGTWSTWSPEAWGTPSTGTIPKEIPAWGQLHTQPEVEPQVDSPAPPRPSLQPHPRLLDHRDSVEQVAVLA
The assay is described as above. The method, then: as §1

For assay [4], the target named is T3, prohibitin (B cell receptor associated protein) (mouse).
T3 sequence (P67778 2-272, looked up): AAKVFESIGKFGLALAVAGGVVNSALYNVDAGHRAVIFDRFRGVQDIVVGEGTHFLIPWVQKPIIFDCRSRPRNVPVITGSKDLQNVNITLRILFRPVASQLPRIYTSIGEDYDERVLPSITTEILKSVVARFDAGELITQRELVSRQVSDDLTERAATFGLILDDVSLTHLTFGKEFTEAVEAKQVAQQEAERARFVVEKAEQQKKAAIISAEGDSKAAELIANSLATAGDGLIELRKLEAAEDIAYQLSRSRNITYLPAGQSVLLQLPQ
Put plainly: immunoprecipitation from mouse adipose tissue extract, SDS-PAGE.

vascular endothelial growth factor receptor-1 (VEGFR1), recombinant, sequence (P17948 27-756 limits assumed): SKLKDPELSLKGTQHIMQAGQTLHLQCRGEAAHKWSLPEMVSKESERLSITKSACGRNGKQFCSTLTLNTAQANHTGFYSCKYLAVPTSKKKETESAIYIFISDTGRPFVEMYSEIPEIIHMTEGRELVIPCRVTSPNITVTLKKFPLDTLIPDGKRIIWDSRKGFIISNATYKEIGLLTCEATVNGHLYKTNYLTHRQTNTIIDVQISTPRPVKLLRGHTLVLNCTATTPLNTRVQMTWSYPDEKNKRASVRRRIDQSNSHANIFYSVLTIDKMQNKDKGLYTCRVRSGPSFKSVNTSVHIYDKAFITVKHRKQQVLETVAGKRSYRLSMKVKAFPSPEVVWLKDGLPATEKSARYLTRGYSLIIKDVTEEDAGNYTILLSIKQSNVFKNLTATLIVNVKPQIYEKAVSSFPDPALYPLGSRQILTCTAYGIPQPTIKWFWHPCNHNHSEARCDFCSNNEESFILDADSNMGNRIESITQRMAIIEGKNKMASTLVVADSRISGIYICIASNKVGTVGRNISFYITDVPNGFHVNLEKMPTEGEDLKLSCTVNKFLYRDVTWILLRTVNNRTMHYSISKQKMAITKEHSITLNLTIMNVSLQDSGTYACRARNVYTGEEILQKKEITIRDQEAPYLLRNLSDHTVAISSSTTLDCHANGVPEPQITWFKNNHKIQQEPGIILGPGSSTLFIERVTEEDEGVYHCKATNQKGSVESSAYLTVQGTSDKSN

B1: CGRRAGGSC (SEQ ID NO:37)-displaying phage (peptide)
peptide: CGRRAGGSC
modifications: not fully specified (bridges); cysteine pairing not given here; also: displayed on filamentous phage
notes: also called prostate-homing phage displaying an IL-11 peptide mimic
Regarding B1, the binding result in assay [1] and in assay [2] was “no binding” throughout.

B2: unrelated phage clone displaying the peptide CRVDFSKGC (SEQ ID NO:38) (peptide)
peptide: CRVDFSKGC
notes: used as a control; also called control phage
Turning to B2, in assay [3], the binding result is “no binding”.

B3: … (SEQ ID NO:81) conjugated to (KLAKLAK)2 (SEQ ID NO:1) (peptide)
peptide: CKGGRAKDCGG[dK][dL][dA][dK][dL][dA][dK][dK][dL][dA][dK][dL][dA][dK]
modifications: disulfide 1-9 (inferred); not fully specified; also: order of the parts not given here explicitly
Take B3: the fold enrichment against the CARAC (SEQ ID NO:71) precipitated fraction in assay [4] was above 10 fold.
